From publication PMC8607333, “Real-time kinetic studies of Mycobacterium tuberculosis LexA–DNA interaction” (Bioscience Reports, 2021) come the findings set out here.

T1: LexAΔ18aa (Mycobacterium tuberculosis, UniProt P9WHR7 1-236, del94-111)
T1 sequence: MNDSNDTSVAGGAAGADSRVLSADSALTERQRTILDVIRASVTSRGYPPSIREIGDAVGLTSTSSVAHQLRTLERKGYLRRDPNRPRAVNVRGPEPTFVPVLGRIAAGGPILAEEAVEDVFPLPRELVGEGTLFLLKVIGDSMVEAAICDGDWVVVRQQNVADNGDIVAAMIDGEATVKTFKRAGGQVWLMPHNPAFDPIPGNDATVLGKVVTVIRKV

T2: LexA WT (Mycobacterium tuberculosis, UniProt P9WHR7 1-236)
T2 sequence: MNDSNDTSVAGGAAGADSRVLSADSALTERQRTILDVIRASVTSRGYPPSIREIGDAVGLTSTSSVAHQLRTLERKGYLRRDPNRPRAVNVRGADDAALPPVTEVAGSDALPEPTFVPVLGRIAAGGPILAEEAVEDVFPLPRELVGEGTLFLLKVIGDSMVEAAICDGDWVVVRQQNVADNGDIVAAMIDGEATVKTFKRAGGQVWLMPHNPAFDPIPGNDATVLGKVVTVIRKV

T3: LexAΔ24aa (Mycobacterium tuberculosis, UniProt P9WHR7 25-236, del1-24)
T3 sequence: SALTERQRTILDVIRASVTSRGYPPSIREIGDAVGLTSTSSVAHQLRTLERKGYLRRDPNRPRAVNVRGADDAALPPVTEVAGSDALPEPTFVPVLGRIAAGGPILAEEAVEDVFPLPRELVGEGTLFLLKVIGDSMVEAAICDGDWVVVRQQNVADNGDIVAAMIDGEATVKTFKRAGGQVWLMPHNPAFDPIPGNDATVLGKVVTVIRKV

B1: dnaE2 44mer SOS box, 32P end-labeled (dsDNA)
DNA 1: ACAACTGCGCTGTATCGAACAATTGTTCGATATACTGTGGAATG
DNA 2: CATTCCACAGTATATCGAACAATTGTTCGATACAGCGCAGTTGT
B2: lexA_44mer SOS box, biotinylated (dsDNA)
DNA 1: CCGGAACACGCCTGTCGAACACATGTTTGATTCTTGGTGCGAAT
DNA 2: ATTCGCACCAAGAATCAAACATGTGTTCGACAGGCGTGTTCCGG
B3: rv3074_44mer SOS box, biotinylated (dsDNA)
DNA 1: GCAGGCTGCTATTCTCGAACACATGTTCGAGACATTGACCGCGA
DNA 2: TCGCGGTCAATGTCTCGAACATGTGTTCGAGAATAGCAGCCTGC
B4: dnaE2_44mer SOS box, biotinylated (dsDNA)
DNA 1: B1 DNA 1
DNA 2: B1 DNA 2
B5: recA_44mer SOS box, biotinylated (dsDNA)
DNA 1: GTGTCACACTTGAATCGAACAGGTGTTCGGCTACTGTGGTGATC
DNA 2: GATCACCACAGTAGCCGAACACCTGTTCGATTCAAGTGTGACAC

The target of one data set is T1, LexAΔ18aa. Nature of the data set: EMSA; 128 nM protein; BLI: 10 mM HEPES pH 7.5, 50 mM NaCl, 25 C (pH 4 buffer not stated), 1:1 global fit; EMSA: 10 mM HEPES pH 7.5, 50 mM NaCl, 30 min on ice, 3.5 nM DNA. The conditions noted are these: protein: recombinant; tags: 6xHis; chain copies: 2; label: 32P end label, no biotin; blunt.
As to B1, the binding result is on record as “binds”.

A further data set addresses T2, LexA WT. Nature of the data set: BLI; pH 7.5; BLI: 10 mM HEPES pH 7.5, 50 mM NaCl, 25 C (pH 4 buffer not stated), 1:1 global fit; […]. To be noted: protein: recombinant; tags: N-term 6xHis (pET28a); chain copies: 2; label: 5' biotin on strand 1; blunt. (In general: Biolayer interferometry detects binding as a change in optical thickness at a sensor tip.)
As a reminder, the Kd is the constant that tells how readily two partners part at equilibrium. As to B2, the Kd stood at 0.98 ± 0.01 nM.

Consider B3, for which the Kd came out at 3.86 ± 0.03 nM.

Consider B4, for which the equilibrium dissociation constant (Kd) worked out at 2.16 ± 0.01 nM.

B5: the Kd amounted to 3.63 ± 0.02 nM.

The target of a further data set is T1, LexAΔ18aa. Briefly: BLI; pH 7.5; BLI: 10 mM HEPES pH 7.5, 50 mM NaCl, 25 C (pH 4 buffer not stated), 1:1 global fit; EMSA: 10 mM HEPES pH 7.5, 50 mM NaCl, 30 min on ice, 3.5 nM DNA. The conditions noted are these: protein: recombinant; tags: 6xHis; chain copies: 2; label: 5' biotin on strand 1; blunt.
With B2, the Kd worked out at 34.53 ± 0.25 nM.

Turning to B3, the Kd was 43.5 ± 0.24 nM.

Turning to B5, the Kd stood at 32.55 ± 0.22 nM.

The next data set has as its target T3, LexAΔ24aa. The data set is described as above. The conditions noted are these: protein: recombinant; tags: N-term 6xHis (pET28a); chain copies: 2; label: 5' biotin on strand 1; blunt.
Take B2: the Kd is 2.36 ± 0.02 nM.

Take B3: the Kd was found to be 2.75 ± 0.04 nM.

As for B4, the Kd amounted to 4.94 ± 0.03 nM.

Regarding B5, the equilibrium dissociation constant (Kd) was 1.67 ± 0.02 nM.
